Experimental data taken from publication PMC11864811, “Human CST Stimulates Base Excision Repair to Prevent the Accumulation of Oxidative DNA Damage” (Journal of molecular biology, 2024).
One block for each binder: values may come before it.

What was measured:
[1] = molecular target: Recombinant human OGG1 (6X-His tagged) (human, UniProt O15527 1-345); experiment: cell-based or functional assay
[2] = molecular target: Recombinant human Pol β (6X-His tagged) (human, UniProt P06746 1-335); experiment: cell-based or functional assay

Sequence of Recombinant human OGG1 (6X-His tagged) (O15527 whole entry): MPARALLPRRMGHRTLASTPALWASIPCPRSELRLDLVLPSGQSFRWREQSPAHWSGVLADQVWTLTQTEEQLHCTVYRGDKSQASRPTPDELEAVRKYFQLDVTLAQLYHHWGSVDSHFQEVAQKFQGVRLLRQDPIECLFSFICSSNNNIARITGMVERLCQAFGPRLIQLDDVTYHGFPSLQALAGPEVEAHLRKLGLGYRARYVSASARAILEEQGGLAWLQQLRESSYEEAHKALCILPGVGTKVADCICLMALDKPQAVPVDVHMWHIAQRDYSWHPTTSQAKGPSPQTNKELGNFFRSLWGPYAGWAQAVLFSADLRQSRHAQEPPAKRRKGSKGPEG

B2: Human CST complex (CTC1-STN1-TEN1) (complex)
chain 1: MAAGRAQVPSSEQAWLEDAQVFIQKTLCPAVKEPNVQLTPLVIDCVKTVWLSQGRNQGSTLPLSYSFVSVQDLKTHQRLPCCSHLSWSSSAYQAWAQEAGPNGNPLPREQLLLLGTLTDLSADLEQECRNGSLYVRDNTGVLSCELIDLDLSWLGHLFLFPRWSYLPPARWNSSGEGHLELWDAPVPVFPLTISPGPVTPIPVLYPESASCLLRLRNKLRGVQRNLAGSLVRLSALVKSKQKAYFILSLGRSHPAVTHVSIIVQVPAQLVWHRALRPGTAYVLTELRVSKIRGQRQHVWMTSQSSRLLLLKPECVQELELELEGPLLEADPKPLPMPSNSEDKKDPESLVRYSRLLSYSGAVTGVLNEPAGLYELDGQLGLCLAYQQFRGLRRVMRPGVCLQLQDVHLLQSVGGGTRRPVLAPCLRGAVLLQSFSRQKPGAHSSRQAYGASLYEQLVWERQLGLPLYLWATKALEELACKLCPHVLRHHQFLQHSSPGSPSLGLQLLAPTLDLLAPPGSPVRNAHNEILEEPHHCPLQKYTRLQTPSSFPTLATLKEEGQRKAWASFDPKALLPLPEASYLPSCQLNRRLAWSWLCLLPSAFCPAQVLLGVLVASSHKGCLQLRDQSGSLPCLLLAKHSQPLSDPRLIGCLVRAERFQLIVERDVRSSFPSWKELSMPGFIQKQQARVYVQFFLADALILPVPRPCLHSATPSTPQTDPTGPEGPHLGQSRLFLLCHKEALMKRNFCVPPGASPEVPKPALSFYVLGSWLGGTQRKEGTGWGLPEPQGNDDNDQKVHLIFFGSSVRWFEFLHPGQVYRLIAPGPATPMLFEKDGSSCISRRPLELAGCASCLTVQDNWTLELESSQDIQDVLDANKSLPESSLTDLLSDNFTDSLVSFSAEILSRTLCEPLVASLWMKLGNTGAMRRCVKLTVALETAECEFPPHLDVYIEDPHLPPSLGLLPGARVHFSQLEKRVSRSHNVYCCFRSSTYVQVLSFPPETTISIPLPHIYLAELLQGGQSPFQATASCHIVSVFSLQLFWVCAYCTSICRQGKCTRLGSTCPTQTAISQAIIRLLVEDGTAEAVVTCRNHHVAAALGLCPREWASLLDFVQVPGRVVLQFAGPGAQLESSARVDEPMTMFLWTLCTSPSVLRPIVLSFELERKPSKIVPLEPPRLQRFQCGELPFLTHVNPRLRLSCLSIRESEYSSSLGILASSC
chain 2: MQPGSSRCEEETPSLLWGLDPVFLAFAKLYIRDILDMKESRQVPGVFLYNGHPIKQVDVLGTVIGVRERDAFYSYGVDDSTGVINCICWKKLNTESVSAAPSAARELSLTSQLKKLQETIEQKTKIEIGDTIRVRGSIRTYREEREIHATTYYKVDDPVWNIQIARMLELPTIYRKVYDQPFHSSALEKEEALSNPGALDLPSLTSLLSEKAKEFLMENRVQSFYQQELEMVESLLSLANQPVIHSASSDQVNFKKDTTSKAIHSIFKNAIQLLQEKGLVFQKDDGFDNLYYVTREDKDLHRKIHRIIQQDCQKPNHMEKGCHFLHILACARLSIRPGLSEAVLQQVLELLEDQSDIVSTMEHYYTAF
chain 3: MMLPKPGTYYLPWEVSAGQVPDGSTLRTFGRLCLYDMIQSRVTLMAQHGSDQHQVLVCTKLVEPFHAQVGSLYIVLGELQHQQDRGSVVKARVLTCVEGMNLPLLEQAIREQRLYKQERGGSQ
Pol β DNA synthesis on a random sequence 66 nt gapped substrate, fold increase with the CST complex [2]: ~3 fold | Pol β dRP lyase activity, fold increase with the CST complex (7.5-45 nM; value at the highest concentration) [2]: ~10 fold

B4: Myc-STN1 (natural protein, human, UniProt Q9H668 1-368, looked up)
chain: MQPGSSRCEEETPSLLWGLDPVFLAFAKLYIRDILDMKESRQVPGVFLYNGHPIKQVDVLGTVIGVRERDAFYSYGVDDSTGVINCICWKKLNTESVSAAPSAARELSLTSQLKKLQETIEQKTKIEIGDTIRVRGSIRTYREEREIHATTYYKVDDPVWNIQIARMLELPTIYRKVYDQPFHSSALEKEEALSNPGALDLPSLTSLLSEKAKEFLMENRVQSFYQQELEMVESLLSLANQPVIHSASSDQVNFKKDTTSKAIHSIFKNAIQLLQEKGLVFQKDDGFDNLYYVTREDKDLHRKIHRIIQQDCQKPNHMEKGCHFLHILACARLSIRPGLSEAVLQQVLELLEDQSDIVSTMEHYYTAF
OGG1 lesion removal and phosphodiester cleavage on an 8-oxo-G substrate, fold increase with purified STN1 (250-1500 nM; value at the highest concentration) [1]: 4.3 fold | Pol β DNA synthesis on a random sequence 66 nt gapped substrate, fold increase with purified STN1 [2]: ~7 fold | Pol β dRP lyase activity, fold increase with purified STN1 (250-1500 nM; value at the highest concentration) [2]: 8 fold | Pol β strand displacement synthesis on a 6-nt gapped substrate, fold increase with purified STN1 [2]: 3 fold

Second part, the binder after the results:

OGG1 lesion removal and phosphodiester cleavage on an 8-oxo-G substrate, fold increase with purified CTC1 (250-1500 nM; value at the highest concentration) [1]: 3.1 fold | Pol β DNA synthesis on a random sequence 66 nt gapped substrate, fold increase with purified CTC1 [2]: ~7 fold | Pol β dRP lyase activity, fold increase with purified CTC1 (250-1500 nM; value at the highest concentration) [2]: ~7.5 fold | Pol β strand displacement synthesis on a 6-nt gapped substrate, fold increase with purified CTC1 [2]: 3 fold
B1: FLAG-CTC1 (natural protein, human, UniProt Q2NKJ3 1-1217, looked up)
chain: MAAGRAQVPSSEQAWLEDAQVFIQKTLCPAVKEPNVQLTPLVIDCVKTVWLSQGRNQGSTLPLSYSFVSVQDLKTHQRLPCCSHLSWSSSAYQAWAQEAGPNGNPLPREQLLLLGTLTDLSADLEQECRNGSLYVRDNTGVLSCELIDLDLSWLGHLFLFPRWSYLPPARWNSSGEGHLELWDAPVPVFPLTISPGPVTPIPVLYPESASCLLRLRNKLRGVQRNLAGSLVRLSALVKSKQKAYFILSLGRSHPAVTHVSIIVQVPAQLVWHRALRPGTAYVLTELRVSKIRGQRQHVWMTSQSSRLLLLKPECVQELELELEGPLLEADPKPLPMPSNSEDKKDPESLVRYSRLLSYSGAVTGVLNEPAGLYELDGQLGLCLAYQQFRGLRRVMRPGVCLQLQDVHLLQSVGGGTRRPVLAPCLRGAVLLQSFSRQKPGAHSSRQAYGASLYEQLVWERQLGLPLYLWATKALEELACKLCPHVLRHHQFLQHSSPGSPSLGLQLLAPTLDLLAPPGSPVRNAHNEILEEPHHCPLQKYTRLQTPSSFPTLATLKEEGQRKAWASFDPKALLPLPEASYLPSCQLNRRLAWSWLCLLPSAFCPAQVLLGVLVASSHKGCLQLRDQSGSLPCLLLAKHSQPLSDPRLIGCLVRAERFQLIVERDVRSSFPSWKELSMPGFIQKQQARVYVQFFLADALILPVPRPCLHSATPSTPQTDPTGPEGPHLGQSRLFLLCHKEALMKRNFCVPPGASPEVPKPALSFYVLGSWLGGTQRKEGTGWGLPEPQGNDDNDQKVHLIFFGSSVRWFEFLHPGQVYRLIAPGPATPMLFEKDGSSCISRRPLELAGCASCLTVQDNWTLELESSQDIQDVLDANKSLPESSLTDLLSDNFTDSLVSFSAEILSRTLCEPLVASLWMKLGNTGAMRRCVKLTVALETAECEFPPHLDVYIEDPHLPPSLGLLPGARVHFSQLEKRVSRSHNVYCCFRSSTYVQVLSFPPETTISIPLPHIYLAELLQGGQSPFQATASCHIVSVFSLQLFWVCAYCTSICRQGKCTRLGSTCPTQTAISQAIIRLLVEDGTAEAVVTCRNHHVAAALGLCPREWASLLDFVQVPGRVVLQFAGPGAQLESSARVDEPMTMFLWTLCTSPSVLRPIVLSFELERKPSKIVPLEPPRLQRFQCGELPFLTHVNPRLRLSCLSIRESEYSSSLGILASSC

Pol β DNA synthesis on a random sequence 66 nt gapped substrate, fold increase with purified TEN1 [2]: ~3 fold | Pol β dRP lyase activity, fold increase with purified TEN1 (250-1500 nM; value at the highest concentration) [2]: 1.5 fold
B3: FLAG-TEN1 (natural protein)
chain: MMLPKPGTYYLPWEVSAGQVPDGSTLRTFGRLCLYDMIQSRVTLMAQHGSDQHQVLVCTKLVEPFHAQVGSLYIVLGELQHQQDRGSVVKARVLTCVEGMNLPLLEQAIREQRLYKQERGGSQ
